We go through 4 substances from patent publication US20170304405A1.

What all share (assay): cell-based or functional assay
Test [1] concerns the target GHRH receptor (GHRH-R) (human) (UniProt Q02643).
In another test the target is GPR101 (human) (UniProt Q96P66).
The target in test [2] is somatostatin receptor 2 (SSTR2) (human) (UniProt P30874).
Test [3] deals with somatostatin receptors (multi-somatostatin receptor).

Sequence of UniProt Q02643 (Q02643 23-423): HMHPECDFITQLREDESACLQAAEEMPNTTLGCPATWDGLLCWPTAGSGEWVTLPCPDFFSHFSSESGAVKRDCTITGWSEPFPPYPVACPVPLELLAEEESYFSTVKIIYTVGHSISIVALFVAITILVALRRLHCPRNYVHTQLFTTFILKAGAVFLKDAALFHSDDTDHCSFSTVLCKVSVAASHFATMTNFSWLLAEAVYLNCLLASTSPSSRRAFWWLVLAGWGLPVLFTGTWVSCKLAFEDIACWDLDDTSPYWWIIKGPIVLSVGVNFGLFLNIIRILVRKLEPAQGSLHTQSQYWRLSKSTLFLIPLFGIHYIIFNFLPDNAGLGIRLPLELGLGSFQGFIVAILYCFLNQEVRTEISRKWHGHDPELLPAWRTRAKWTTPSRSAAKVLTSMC
Sequence of UniProt Q96P66 (Q96P66 whole entry): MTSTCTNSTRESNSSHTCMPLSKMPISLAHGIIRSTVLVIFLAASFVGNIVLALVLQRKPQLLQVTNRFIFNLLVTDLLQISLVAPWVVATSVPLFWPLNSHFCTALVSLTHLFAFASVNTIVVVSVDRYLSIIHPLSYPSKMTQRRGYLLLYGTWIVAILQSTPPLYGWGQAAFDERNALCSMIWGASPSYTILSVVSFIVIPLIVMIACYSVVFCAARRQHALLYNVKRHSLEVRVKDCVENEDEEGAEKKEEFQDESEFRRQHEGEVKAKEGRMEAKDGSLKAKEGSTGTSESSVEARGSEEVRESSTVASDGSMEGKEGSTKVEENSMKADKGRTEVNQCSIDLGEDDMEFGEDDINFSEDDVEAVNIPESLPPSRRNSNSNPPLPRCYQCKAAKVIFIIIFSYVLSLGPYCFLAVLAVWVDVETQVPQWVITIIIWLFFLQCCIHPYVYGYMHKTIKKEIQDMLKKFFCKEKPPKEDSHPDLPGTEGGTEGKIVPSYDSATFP
Sequence of UniProt P30874 (P30874 whole entry): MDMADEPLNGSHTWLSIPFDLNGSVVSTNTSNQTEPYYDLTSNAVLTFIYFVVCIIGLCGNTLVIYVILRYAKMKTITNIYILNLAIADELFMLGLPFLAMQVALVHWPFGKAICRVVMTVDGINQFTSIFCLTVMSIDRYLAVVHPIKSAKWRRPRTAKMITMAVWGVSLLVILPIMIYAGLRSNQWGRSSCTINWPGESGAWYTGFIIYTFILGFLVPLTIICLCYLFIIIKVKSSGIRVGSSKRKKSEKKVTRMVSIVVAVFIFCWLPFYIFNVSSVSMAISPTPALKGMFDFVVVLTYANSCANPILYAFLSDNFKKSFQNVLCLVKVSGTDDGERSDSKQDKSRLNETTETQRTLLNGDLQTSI

As for “GH releasing hormone (GHRH) (from UniProt P01286 32-75) (ligand)”, in test [1], the GH secretion by primary X-LAG pituitary tumour cells, % change vs control wells, GHRH at 10^-10 M was determined as 410% and the Prolactin secretion by primary X-LAG pituitary tumour cells, % change vs control wells, GHRH at 10^-8 M is 11%.

In the test with GPR101 (human), “GnRH1-5 (from UniProt P01148 24-28) (peptide)” yielded a GH secretion by primary X-LAG pituitary tumour cells, % change vs control, GnRH1-5 at 10^-10 M of 15%.

In the case of octreotide (peptide), in test [2], the Prolactin secretion by primary X-LAG pituitary tumour cells, % change vs control, octreotide at 10^-9 M was -26%.

Consider pasireotide (peptide), for which the GH secretion by primary X-LAG pituitary tumour cells, % change vs control, maximum inhibition at 10^-8 M in test [3] was -18%.
